Substrate: C[C@H](O)C(=O)O
Experiment: cells, lysate or membranes named
Type: biochemical, Staphylococcus aureus
Details: 1.4 mM menaquinone, 5 μM FAD, phosphatidylethanolamine vesicles, NBT

B1: Lqo (Mqo2, SACOL2623) (Staphylococcus aureus subsp. aureus COL) (protein)
chain: MAKSNSKDIVLIGAGVLSTTFGSMLKEIEPDWNIHVYERLDRPAIESSNERNNAGTGHAALCELNYTVLQPDGSIDIEKAKVINEEFEISKQFWGHLVKSGSIENPREFINPLPHISYVRGKNNVKFLKDRYEAMKAFPMFDNIEYTEDIEVMKKWIPLMMKGREDNPGIMAASKIDEGTDVNFGELTRKMAKSIEAHPNATVQFNHEVVDFEQLSNGQWEVTVKNRLTGEKFKQVTDYVFIGAGGGAIPLLQKTGIPESKHLGGFPISGQFLACTNPQVIEQHDAKVYGKEPPGTPPMTVPHLDTRYIDGQRTLLFGPFANVGPKFLKNGSNLDLFKSVKTYNITTLLAAAVKNLPLIKYSFDQVIMTKEGCMNHLRTFYPEARNEDWQLYTAGKRVQVIKDTPEHGKGFIQFGTEVVNSQDHTVIALLGESPGASTSVSVALEVLERNFPEYKTEWAPKIKKMIPSYGESLIEDEKLMRKIRKQTSKDLELGYYEN
Km: 330 µM

Reference: PMC3417369
